pKd: −log10 of the molar value.
What was measured:
RBP4 = RBP4 (UniProt P02753); conditions: cited from earlier work
[1] = molecular target: Recombinant mouse RBP4 with 6XHis Tag (mouse) (UniProt Q00724); assay: SPR; mouse RBP4 amine-coupled to a CM5 chip (target 1,200 RU), Biacore S200; peptides as analytes, 0.8-26.6 uM; running buffer PBST (0.05% Tween20); 25 C; contact 120 s, dissociation 300 s; Kd from the site-specific binding fit Y=(Bmax*X)/(Kd+X)

| pKd [1] | Substance | pKd (RBP4) |
| --- | --- | --- |
|  | STRA6 (from UniProt Q9BX79) | 4.65 |
| 4.67 | mouse RBPR2-L296S mutant peptide (from UniProt Q9DBN1 280-321) |  |
| 4.05 | mouse RBPR2-S294A mutant peptide (from UniProt Q9DBN1 280-321) |  |
| 4.46 | mouse RBPR2-Y295P mutant peptide (from UniProt Q9DBN1 280-321) |  |

— publication PMC9992173, “Mapping of the extracellular RBP4 ligand binding domain on the RBPR2 receptor for Vitamin A transport” (Frontiers in Cell and Developmental Biology, 2023)
